Data from PMC7144902, “Absence of MeCP2 binding to non-methylated GT-rich sequences in vivo”.

Key:
Conditions in all cases: protein: recombinant; tags: C-terminal His; label: 32P; blunt
MeCP2[1-205] [1] = molecular target: T1, MeCP2[1-205] (Homo sapiens, UniProt P51608 1-205); experiment: EMSA; similar to GGTGT and mCAC; EMSA: 10 mM Tris-HCl pH 7.5, 150 mM KCl (250 mM for MeCP2[1-486]), 0.1 mg/ml BSA, 5% glycerol, 0.1 mM EDTA, 1 ug poly(dA-dT), 1 ng probe, 20 ul, 30 min on ice
MeCP2[1-205] [2] = molecular target: T1, MeCP2[1-205]; experiment: EMSA; no significant binding; EMSA: 10 mM Tris-HCl pH 7.5, 150 mM KCl (250 mM for MeCP2[1-486]), 0.1 mg/ml BSA, 5% glycerol, 0.1 mM EDTA, 1 ug poly(dA-dT), 1 ng probe, 20 ul, 30 min on ice
MeCP2[1-205] [3] = molecular target: T1, MeCP2[1-205]; experiment: EMSA; stronger than mCAC and GGTGT; EMSA: 10 mM Tris-HCl pH 7.5, 150 mM KCl (250 mM for MeCP2[1-486]), 0.1 mg/ml BSA, 5% glycerol, 0.1 mM EDTA, 1 ug poly(dA-dT), 1 ng probe, 20 ul, 30 min on ice
MeCP2[1-486] = MeCP2[1-486] (Homo sapiens, UniProt P51608 1-486); experiment: EMSA; 250 mM KCl; preferred over CG; EMSA: 10 mM Tris-HCl pH 7.5, 150 mM KCl (250 mM for MeCP2[1-486]), 0.1 mg/ml BSA, 5% glycerol, 0.1 mM EDTA, 1 ug poly(dA-dT), 1 ng probe, 20 ul, 30 min on ice
MeCP2[1-205] [4] = molecular target: T1, MeCP2[1-205]; experiment: EMSA; EMSA: 10 mM Tris-HCl pH 7.5, 150 mM KCl (250 mM for MeCP2[1-486]), 0.1 mg/ml BSA, 5% glycerol, 0.1 mM EDTA, 1 ug poly(dA-dT), 1 ng probe, 20 ul, 30 min on ice
MeCP2[77-167] = MeCP2[77-167] (Homo sapiens, UniProt P51608 77-167); experiment: as above
MeCP2[1-205] [5] = molecular target: T1, MeCP2[1-205]; experiment: EMSA; background only; EMSA: 10 mM Tris-HCl pH 7.5, 150 mM KCl (250 mM for MeCP2[1-486]), 0.1 mg/ml BSA, 5% glycerol, 0.1 mM EDTA, 1 ug poly(dA-dT), 1 ng probe, 20 ul, 30 min on ice
MeCP2[1-205] [6] = molecular target: T1, MeCP2[1-205]; experiment: EMSA; comparable to mCAC, lower than mCG; EMSA: 10 mM Tris-HCl pH 7.5, 150 mM KCl (250 mM for MeCP2[1-486]), 0.1 mg/ml BSA, 5% glycerol, 0.1 mM EDTA, 1 ug poly(dA-dT), 1 ng probe, 20 ul, 30 min on ice
MeCP2[1-205] [7] = molecular target: T1, MeCP2[1-205]; experiment: EMSA; only marginal effect; EMSA: 10 mM Tris-HCl pH 7.5, 150 mM KCl (250 mM for MeCP2[1-486]), 0.1 mg/ml BSA, 5% glycerol, 0.1 mM EDTA, 1 ug poly(dA-dT), 1 ng probe, 20 ul, 30 min on ice

B1: GT2 (dsDNA)
DNA 1: AAGCATGCAATGCCCTGGAAGTGTAATTCTTCTAATAAAAGATGTATCATTTTAAATGC
DNA 2: GCATTTAAAATGATACATCTTTTATTAGAAGAATTACACTTCCAGGGCATTGCATGCTT
MeCP2[1-205] [1]
  binding result: binds

B2: GT1 (dsDNA)
DNA 1: AAGCATGCAATGCCCTGGAAGTAATTCTTCTAATAAAAGATGTATCATTTTAAATGC
DNA 2: GCATTTAAAATGATACATCTTTTATTAGAAGAATTACTTCCAGGGCATTGCATGCTT
MeCP2[1-205] [2]
  binding result: no binding

B3: GT3 (dsDNA)
DNA 1: AAGCATGCAATGCCCTGGAAGTGTGTAATTCTTCTAATAAAAGATGTATCATTTTAAATGC
DNA 2: GCATTTAAAATGATACATCTTTTATTAGAAGAATTACACACTTCCAGGGCATTGCATGCTT
MeCP2[1-205] [1]
  binding result: binds

B4: mCG (dsDNA)
DNA 1: AAGCATGCAATGCCCTGGAACGGAATTCTTCTAATAAAAGATGTATCATTTTAAATGC
DNA 2: GCATTTAAAATGATACATCTTTTATTAGAAGAATTCCGTTCCAGGGCATTGCATGCTT
modifications: 5mC at strand 1 position 21; reverse strand the appropriate methylated oligo (position not given)
MeCP2[1-205] [3]
  binding result: binds
MeCP2[1-486]
  binding result: binds

B5: mCAC (dsDNA)
DNA 1: AAGCATGCAATGCCCTGGAACACAATTCTTCTAATAAAAGATGTATCATTTTAAATGC
DNA 2: GCATTTAAAATGATACATCTTTTATTAGAAGAATTGTGTTCCAGGGCATTGCATGCTT
modifications: 5mC at strand 1 position 21
MeCP2[1-205] [4]
  binding result: binds
MeCP2[77-167]
  binding result: binds

B6: CAC (dsDNA)
DNA 1: AAGCATGCAATGCCCTGGAACACAATTCTTCTAATAAAAGATGTATCATTTTAAATGC
DNA 2: GCATTTAAAATGATACATCTTTTATTAGAAGAATTGTGTTCCAGGGCATTGCATGCTT
MeCP2[1-205] [5]
  binding result: no binding

B7: GGTGT (dsDNA)
DNA 1: AAGCATGCAATGCCCTGGAAGGTGTAATTCTTCTAATAAAAGATGTATCATTTTAAATGC
DNA 2: GCATTTAAAATGATACATCTTTTATTAGAAGAATTACACCTTCCAGGGCATTGCATGCTT
MeCP2[1-205] [6]
  binding result: binds

B8: GGTGU (dsDNA)
DNA 1: AAGCATGCAATGCCCTGGAAGGTGUAATTCTTCTAATAAAAGATGTATCATTTTAAATGC
DNA 2: GCATTTAAAATGATACATCTTTTATTAGAAGAATTACACCTTCCAGGGCATTGCATGCTT
modifications: 3' motif T replaced by deoxyuridine
MeCP2[1-205] [7]
  binding result: binds

B9: GT5 (dsDNA)
DNA 1: AAGCATGCAATGCCCTGGAAGTGTGTGTGTAATTCTTCTAATAAAAGATGTATCATTTTAAATGC
DNA 2: GCATTTAAAATGATACATCTTTTATTAGAAGAATTACACACACACTTCCAGGGCATTGCATGCTT
MeCP2[1-205] [1]
  binding result: binds

B10: GT4 (dsDNA)
DNA 1: AAGCATGCAATGCCCTGGAAGTGTGTGTAATTCTTCTAATAAAAGATGTATCATTTTAAATGC
DNA 2: GCATTTAAAATGATACATCTTTTATTAGAAGAATTACACACACTTCCAGGGCATTGCATGCTT
MeCP2[1-205] [1]
  binding result: binds
